Experimental data from patent publication US20030171537, “Peptides and peptidomimetics with structural similarity to human p53 that activate p53 function” (published 2003).

Target: p53 wild-type (Homo sapiens, UniProt P04637 SEQ:1-393)
Experiment: EMSA; binds quite efficiently; PAb421 stimulation +
Details: chain copies: 4 inferred; label: 32P
Protocol: Briefly the in vitro translated protein is incubated with a radioactively labeled oligonucleotide containing a p53 binding site in the presence of non-specific competitor DNA. The reaction mixture is incubated 20 min. at room temperature and directly loaded on a native 5% polyacrylamide electrophoresis gel. In this type of DNA binding assay free DNA migrates to the bottom of the gel, whereas p53/DNA complexes migrate more slowly.

p53 wild-type, sequence (P04637 whole entry): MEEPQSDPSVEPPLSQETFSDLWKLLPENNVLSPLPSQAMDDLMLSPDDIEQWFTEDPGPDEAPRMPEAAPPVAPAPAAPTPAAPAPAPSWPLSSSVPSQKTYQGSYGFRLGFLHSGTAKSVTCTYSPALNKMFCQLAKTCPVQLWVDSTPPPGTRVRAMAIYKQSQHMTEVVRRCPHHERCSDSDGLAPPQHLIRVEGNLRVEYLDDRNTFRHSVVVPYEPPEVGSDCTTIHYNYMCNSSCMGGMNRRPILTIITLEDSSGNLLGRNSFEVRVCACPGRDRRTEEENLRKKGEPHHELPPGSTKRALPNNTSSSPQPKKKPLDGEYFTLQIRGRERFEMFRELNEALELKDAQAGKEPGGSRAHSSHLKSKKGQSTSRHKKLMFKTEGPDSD

B1: BC (dsDNA)
DNA 1: CCGGGCATGTCCGGGCATGTCCGGGCATGT
DNA 2: ACATGCCCGGACATGCCCGGACATGCCCGG
B1: binds.
